Laboratory results reported in US20180280488A1, “Methods and Compositions for Binding Complement C3 for Targeting of Immune Cells” (University of Alaska Anchorage, priority 2017, published 2018).

B1: ovalbumin (protein, UniProt P01012 2-386, looked up)
Ovalbumin: GSIGAASMEFCFDVFKELKVHHANENIFYCPIAIMSALAMVYLGAKDSTRTQINKVVRFDKLPGFGDSIEAQCGTSVNVHSSLRDILNQITKPNDVYSFSLASRLYAEERYPILPEYLQCVKELYRGGLEPINFQTAADQARELINSWVESQTNGIIRNVLQPSSVDSQTAMVLVNAIVFKGLWEKAFKDEDTQAMPFRVTEQESKPVQMMYQIGLFRVASMASEKMKILELPFASGTMSMLVLLPDEVSGLEQLESIINFEKLTEWTSSNVMEERKIKVYLPRMKMEEKYNLTSVLMAMGITDVFSSSANLSGISSAESLKISQAVHAAHAEINEAGREVVGSAEAGVDAASVSEEFRADHPFLFCIKHIATNAVLFFGRCVSP
notes: Non-encapsulated ovalbumin, model tumor antigen, matched to the encapsulated amount

Assays:
[1] = system: OVA-specific T cell hybridoma D011; test: T cell activation: BMDC co-culture with OVA-specific reporter T cell hybridoma D011 (GFP); assay type: cell-based, mice; details: BMDC 24 hours with OVA treatments, D011 T cells 24 hours; mean±standard error (n=3)
Procedure: Bone marrow was extracted from adult BALB/c mice. Mice were euthanized and femur and humerus bones removed and cleaned of tissue. Bones were kept in RPMI in a sterile petri dish, and bone marrow was flushed from bones using RPMI and a 1 mL insulin syringe. Extracted bone marrow was filtered through a 100 μm nylon mesh filter and rinsed twice in RPMI. Bone marrow cells were then counted and plated at a density of 2×10^6 cells in culture medium (RPMI, 10% heat inactivated FBS, 1% penicillin/streptomycin). Granulocyte-macrophage colony stimulating factor (GM-CSF) and Interleukin-4 (IL-4) were added to the culture medium at 40 ng/mL and 20 ng/mL, respectively. Cells were incubated at 37° C. and medium with GM-CSF and IL-4 was replenished after 3 days. On day 6, non-adherent and loosely-adherent cells were harvested by pipetting and re-suspended in culture media.
10 μL of OPSS-liposomes containing OVA, control-liposomes containing OVA and free OVA matching the amount encapsulated in OPSS-liposomes (see liposome preparation) were incubated in 10 μL C3-positive and -negative serum for 1 hour at room temperature prior to addition to 80 μL of bone marrow-derived dendritic cells in RPMI (1% penicillin/streptomycin) containing 1.6×10^5 cells per well in a U-bottom plate. […] The co-cultures were then analyzed for T cell activation (GFP expression) by fluorescence microscopy and flow cytometry.

[2] = Liver toxicity assays (plasma AST, ALT); assay type: in vivo; details: A20-OVA mice, 4 days after last injection
Procedure: Mice were euthanized following therapy, 4 days after the last injection and blood was collected via cardiac puncture and placed in heparinized tubes. Plasma was separated from blood via centrifugation at 500×g for 15 minutes and frozen at −80° C. for subsequent analysis. Red blood cell lysis buffer (eBioscience) was added to the remaining blood for 10 minutes at room temperature. Samples were then prepared for flow cytometry analysis or frozen in culture media supplemented with 10% dimethyl sulfoxide for later use.
Mouse plasma levels of aspartate transaminase (AST) and alanine transaminase (ALT) were determined using kits purchased from BioAssay Systems (Hayward, Calif., USA). Plasma was collected from mice as previously described. Plasma samples were diluted 1:1 in assay buffer prior to addition to a Falcon flat-bottom microtest 96-well assay plate, black/clear bottom (Becton Dickinson Labware, Franklin Lakes, N.J., USA). Absorbance was measured at 340 nm at 5 and 10 minutes using a BioTek Synergy HT plate reader, and enzyme activity was calculated according to the protocol.

Molecule | T cell activation (GFP expression) [1] [%] | ALT in mouse plasma ([2]; normal range 15-84 U/L) [U/L] | AST in mouse plasma ([2]; normal range 54-298 U/L) [U/L]
ovalbumin [free OVA, Non-encapsulated ovalbumin, model tumor antigen, matched to the encapsulated amount] | 14.4±0.8 | – | –
B1 | – | 51.2±34.7 | 110.4±25.6
